# ± gives the uncertainty stated by the source.
# Assay: amyloid nucleation score (Sup35N fusion, yeast selection) (log enrichment); library NNK1; higher = more nucleation; inactive = no reads after selection
# Summary of the method: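 DiMSum was used to calculate nucleation scores as log enrichment of output over input reads, centred on the mode score of non-aggregating sequences. Sequences with fewer than 100 input reads were not scored. Input and output came from Illumina sequencing of plasmid inserts in psi-negative yeast expressing peptides of 20 random codons fused to Sup35N, induced 24 hours with 100 μM copper sulfate and then grown 7 days at 30°C on medium lacking adenine and uracil.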
row,Substance,amyloid nucleation score
1,AGFSSDFASVPHPLGYGWLT,-0.662 ± 1.2
2,AGGRFCLLKFLTRFASCRGE,2.44 ± 0.24
3,AGIIVWN,-0.087 ± 0.31
4,AGLRIYVVSFILTYGKRFSS,0.12 ± 0.4
5,AGMAWYTPVWVSGWGQPHTE,-0.119 ± 0.38
6,AGVNWASHWHMDHMSGFVEW,-0.684 ± 0.3
7,AGYGFKCMGYRLDLKTPFVY,0.019 ± 0.59
8,AHCLLIALTCCRKNNKNVSC,0.902 ± 0.44
9,AHFKYN,0.271 ± 1.4
10,AHRDWFS,-0.553 ± 1.1
11,AHSALVTRTYSINIYFVSVE,1.51 ± 0.21
12,AHYPFI,0.065 ± 1.5
13,AIDRVSYHVKVVRGHINSKF,inactive
14,AIGSCWTGLRNGT,0.734 ± 1.1
15,AIMLGVGFKDGSIVYKLG,-0.354 ± 0.25
16,AIPRSVITRFLSCLAIEAWQ,0.627 ± 0.41
17,AISLVAVRFMGMGEGVSDKN,5.33 ± 0.1
18,AIVNMVLIHKERTVSVLIRA,-0.296 ± 0.58
19,AIVVKNDFTGSPRF,inactive
20,AIWVDVTLFTEKADWVSLRR,2.42 ± 0.28
21,AIYIVVEI,-0.764 ± 1.2
22,AIYSPYRNLER,0.233 ± 0.42
23,AKLAPCNSLVIDTY,1.89 ± 0.4
24,AKRLFRRSTLMTSNTGLAVL,0.287 ± 1.4
25,AKSKVLWESSVRQRS,-0.04 ± 0.62

row,Substance,amyloid nucleation score
1,ALAPPKNSFLLMLALILMLL,0.093 ± 0.53
2,ALCFCWNWLLCTDKGL,6.056 ± 0.048
3,ALCVDGDAVVTWDTILNEHF,-0.361 ± 0.97
4,ALCVWQRLSRLLLDTPWHVR,0.806 ± 0.69
5,ALGLRILCMRRDSRWDSPCS,0.353 ± 0.84
6,ALITFSRGWLAPLMGQQMVL,inactive
7,ALKFPMWDSVEYGDCVGSLI,inactive
8,ALLESGCWSMWFVSFRFELA,-0.119 ± 0.76
9,ALLMGDFGCFLYTFGWFYAK,-0.173 ± 0.41
10,ALLSSYLWK,0.996 ± 0.45
11,ALLVPGILW,3.34 ± 0.078
12,ALNHRHTGTRK,0.782 ± 0.61
13,ALNSQSGFKFERSMYLLVIG,1.17 ± 0.43
14,ALSFHYKNLVNT,0.027 ± 0.49
15,ALSSWLCGSG,0.746 ± 0.9
16,ALVTWWSYHSLMVSGCKVRS,-0.299 ± 0.59
17,ALVYANPMTVWPSGSLTSVL,0.685 ± 0.47
18,ALWCMRSTSRLGKCFGLVIY,-0.945 ± 0.77
19,ALYPPAGAGLRECRARSLSA,0.341 ± 0.5
20,AMCCYGYVCCFYGSEVG,5.51 ± 0.078
21,AMGRLYS,-0.41 ± 0.3
22,AMGTLVIKGRYFYIFSASFG,-1.52 ± 2.4
23,AMIPNVRVYVVVITNISFCV,0.736 ± 0.26
24,AMNRHGLWKSSVSRGILFFS,0.129 ± 0.35
25,AMWSSLIDMCNNG,0.35 ± 0.25

row,Substance,amyloid nucleation score
1,ANCFPLCRKNLGRSGVNNVR,-0.452 ± 0.74
2,ANENLMNRYITNKRSCWCRW,-0.728 ± 0.48
3,ANGADCYSLSKTEYYYGKTL,-0.129 ± 1.6
4,ANISSGKFVRGSCENLARLR,-0.805 ± 0.59
5,ANMDWGRAMFWDGRVGMVRS,-0.645 ± 1.7
6,ANSGTRIRFYICWFKSETTW,1.87 ± 0.1
7,ANSSFLYTSEHFRHVMAWFG,-0.075 ± 0.68
8,APCQYSFVSVSYSTVNWLMT,8.933 ± 0.071
9,APLEFWRGTVVAWLWYLCPF,0.303 ± 0.41
10,APQSYVVVWFCVARKRCSWD,-0.303 ± 0.53
11,APSAVS,0.876 ± 0.53
12,ARAVFLGEVGSAFFCRQSVW,0.273 ± 0.74
13,ARIMFVPWSLNDLWLGRFSM,-0.263 ± 0.45
14,ARLLSQVEAEASWSNTY,0.568 ± 0.43
15,ARRLFAAMLLRDWVPLTSQM,1.27 ± 0.66
16,ARSSK,-0.081 ± 0.23
17,ARSVKAIIKAICRGV,-0.055 ± 0.95
18,ARTKGSVAPTTLHANNGAWS,-0.053 ± 0.39
19,ARTRVTLSR,-0.072 ± 0.98
20,ARVTVNGFLWCYNLGIRLDF,-0.779 ± 1.6
21,ARWLIEAVWSMYRFHYIGKR,-0.722 ± 0.52
22,ASAWARNVVRSTVMKVSWVG,0.543 ± 0.45
23,ASDMSCMQSNSYFNLCTYTM,5.28 ± 0.064
24,ASFHNVQIGAYNMCKMNKGC,1.75 ± 0.34
25,ASKMALYPG,0.366 ± 0.56

row,Substance,amyloid nucleation score
1,ASMID,0.002 ± 0.27
2,ASRYRKFTLWN,-0.466 ± 0.31
3,ASVILIVPINLYLYVVYVWI,3.2 ± 0.15
4,ATGINTGMTSNYSVMEMWGF,0.937 ± 0.48
5,ATQRKDIA,inactive
6,ATQSVFSKWVGGIRWWCVLL,-0.65 ± 0.88
7,ATRFTR,0.282 ± 0.5
8,ATTALAMGGSNDTMGYGVRC,0.006 ± 0.4
9,ATYAYRFRLVSTIICLD,-0.222 ± 1.4
10,AVDMTWYIVVSMLHMLDASV,1.26 ± 0.76
11,AVGSDWDVYWVPRRMRMMCS,-1.84 ± 2.7
12,AVIEYR,-0.582 ± 0.32
13,AVMCYDNTSSNVSFN,-0.279 ± 0.28
14,AVRVTLKL,1.31 ± 0.2
15,AVYGAECDCAWFTPYSVVAD,0.19 ± 0.36
16,AWGCMMAYFTGRLISEVSNS,-0.529 ± 0.36
17,AWHEGFHCCN,1.21 ± 0.31
18,AWHTRPQTKTERPLRPVFRA,-0.733 ± 0.69
19,AWLLLEDWFVNRVILICGAK,0.027 ± 0.27
20,AYAILMRKMVIHADLLARC,-0.006 ± 0.7
21,AYCTLNR,0.603 ± 0.36
22,AYFMDASFNVFIDISFGGGL,8.115 ± 0.046
23,AYIKNQ,-0.305 ± 0.47
24,AYKGMSLPDRIFKWLVWWHN,0.008 ± 0.53
25,AYKVSRKLKVLRFDFIEV,-0.477 ± 0.71

row,Substance,amyloid nucleation score
1,AYNIVDRSYLGSCKPESFVG,0.469 ± 0.44
2,AYRNKETMCSLRTCRMVCSR,0.206 ± 0.34
3,AYVKLILCLCRNLDWK,2.98 ± 0.24
4,AYYVRGRNLLFVTIGYGYLC,-1 ± 1
5,CACVIRIFNLMVMWDILYWS,0.748 ± 1.2
6,CARYNASDRGEASYLIEHCG,-0.224 ± 0.57
7,CAYSNKE,0.228 ± 0.34
8,CCFRRVTSRVPGRTMEGNCF,-0.264 ± 1.2
9,CCGLSDLYDVAVERVGGLLN,-1.26 ± 1.1
10,CCIVSGFALSSTTRMNVR,1.77 ± 0.15
11,CCLGRR,-0.151 ± 0.52
12,CCTDIISQRIVGYLMVVC,-0.755 ± 0.68
13,CCWSYR,2.51 ± 0.13
14,CDFAYRDWCHKMRYRYTRPC,0.38 ± 0.39
15,CDKGPGCWVRMKQPGRLQMG,3.46 ± 0.076
16,CDRAIPLSIHTELMYRRSRG,1.11 ± 0.38
17,CEFGSGQALIYGYTMYTWTT,0.703 ± 0.49
18,CESQMSRVDVLSCYMYGSVM,0.303 ± 0.4
19,CEVRFLCWYGFIWRYN,-0.336 ± 0.74
20,CEWAAGRTWMKLGSSSTKTK,3.87 ± 0.12
21,CFCVD,1.01 ± 0.19
22,CFDNIGGCFNPHDY,-0.184 ± 0.43
23,CFDVQ,2.29 ± 0.61
24,CFFFPPEYTKRLKSSSMVRR,-0.652 ± 0.9
25,CFIGANPLRNQWMRSTRIVP,0.28 ± 0.61

row,Substance,amyloid nucleation score
1,CFLSLVWQHGHWWEGLESRL,0.714 ± 0.53
2,CFMCTGAGCILNEMPRNLLG,7.793 ± 0.071
3,CFSKLEISFDESFR,-0.154 ± 0.28
4,CFTKIFDDYSWCFGAGANQS,0.348 ± 0.28
5,CFVPY,-0.109 ± 0.53
6,CFYMVSFEFR,1.12 ± 0.34
7,CGFKLVVVCFMK,3.47 ± 0.2
8,CGGTNILWVRSLPHGLDVHD,-0.204 ± 0.39
9,CGLERTCRRGPSELTCTLYE,-0.201 ± 0.56
10,CGNSFTKLTTMLTRHHIADG,0.437 ± 0.38
11,CGQLACVEPNWLSIKVMFRN,inactive
12,CHCCEVSWCSVWKVCIYCNI,5 ± 0.088
13,CHCGVL,0.702 ± 1.1
14,CHEALDLMCHADTVIFALAE,-0.216 ± 0.57
15,CHEQHSASREYVDREYGKYS,inactive
16,CHSTGGT,-0.468 ± 1.9
17,CIDCYYRVCRFWSDSQAR,0.552 ± 0.74
18,CIFGHWAFFDCNCYILYVLY,2.27 ± 0.23
19,CIGTHRIRFNSLLYRDQPII,-0.15 ± 0.86
20,CIISNVCTRVGGKMGSYGYS,0.133 ± 0.4
21,CILGNME,inactive
22,CILLYMQKSIGFGNSVKFAF,inactive
23,CILVARKAVLNCGGWKRSVR,6.27 ± 0.067
24,CILWDWMYEGMKTSEGIFDR,0.118 ± 0.71
25,CIMLRMFVYESYSVCVVVA,inactive

row,Substance,amyloid nucleation score
1,CITANMDENLVSRIRWASEY,0.462 ± 0.79
2,CKEINL,-0.374 ± 0.6
3,CKRRIQMKLLS,-0.244 ± 0.37
4,CKTCFTLRKIF,-0.461 ± 0.38
5,CKVSSSFS,0.258 ± 0.34
6,CKYVRTQVWSHRLPADNCLT,-0.997 ± 0.98
7,CLEDFLDNLFSSGYFKFQLV,inactive
8,CLIISRVVRSVTNIMEMNNG,0.251 ± 0.45
9,CLLYCTYVMRLTMLKILVVI,1.27 ± 0.63
10,CLNGGNFYRSLTRAKTNKNF,-0.258 ± 1.1
11,CLQMRSVSYVIMRFTGKLTW,0.693 ± 0.32
12,CLSGGFMPTYKVIWRQGCYG,inactive
13,CLSRHLKNGPRMA,0.495 ± 1
14,CLTSRQMMQKLMRYIKNDLG,-0.051 ± 0.32
15,CLVIRFILHLSCK,0.587 ± 0.54
16,CLVYVQLWVARMSYPCVRFG,0.214 ± 0.32
17,CLWSSVGRQTEWFSHEVNGG,0.017 ± 0.43
18,CLYVTPYMLFYLLVSNGTEC,-1 ± 0.35
19,CMAHIYCWDICYNERWGFYI,4.11 ± 0.052
20,CMHFVYNIKVRIIPDEYDHS,4.6 ± 0.091
21,CMVMLGSEQKFYMVVRPLKI,-0.085 ± 0.41

# From the supplement of paper PMC12042874
